Laboratory results reported in the nanobody polyreactivity screen of Harvey et al. (2022).

assay: yeast display, Sf9 membrane polyspecificity reagent, FACS + sequencing; frameworks hold sequencing errors
In short: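 Synthetic nanobody libraries on Saccharomyces cerevisiae BJ5465 were galactose-induced for 36–48 hours, stained 1 hour at 4 °C with 10% biotinylated, detergent-solubilized Sf9 membrane reagent and enriched on streptavidin microbeads. FACS then separated cells into low and high (top ~1%) gates by anti-HA (expression) and streptavidin (reagent binding) fluorescence. Genes were colony-PCR amplified, MiSeq 2 × 250 sequenced and CDR-length filtered. A clone's polyreactivity label is that of its gate of origin.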

Sequence	polyreactivity (PSR sort gate)
QVQLVESGGGLVQAGGSLRLSCAASGLTFSPYAMGWYRQAPGKERELVATITIGGSTKYADSVKGRFTISRDNAKNTVYLQMNSLKPEDPAVYYCAVRSGYVTRRYDYWGQGTQVTVSS	low polyreactivity
QVQLVESGGGLVQAGGSLRLSCAASGLTFSRNAMGWYRQAPGKERELVAAINWRGGRTYYADSVKGRFIISRDNAKNTVYLQMNSLKPEDTAVYYCAADPANRCMYYWGQGTQVTVSS	high polyreactivity
QVQLVESGGGLVQAGGSLRLSCAASGLTFSRNGMGWYRQAAGKERELVAAISTSGDSTDYADSVKGRFTISRDYAKNTVYLQMNSLKPEDTAVYYCNRDFSLVVHYNFDYWGQGTQVTVSS	low polyreactivity
QVQLVESGGGLVQAGGSLRLSCAASGLTFSRYAMGWYRQAPGKERELVAAIKGRGGSTYYADSVKGRFTISRDNAKNTVYLQMNSLKPEDTAVYYCAATTRGSYSGNRPAYYWGQCTQVTVSS	high polyreactivity
QVQLVESGGGLVQAGGSLRLSCAASGLTFSSYAMGWYRQAPGKERELVAVISRTGGSTYYADSVKGRFTISRDNAKNTVYLQMNSLKPEDTAVYYCAARSYNGWRYDSWGQGTQVTVSS	high polyreactivity
QVQLVESGGGLVQAGGSLRLSCAASGLTFSSYTMGWYRQAHGKERELVAAINWNGGDTYYADSVKGRFTISRDNAKNTVYLQMHSLKPEDTAVYYCNADYPYFYRFTAEYDYCGQGTQVTVSS	low polyreactivity
QVQLVESGGGLVQAGGSLRLSCAASGLTFSVYAMGWYRQAPGKERELVAAISGSGGSTYYADSVKGRFTISRDNAKNTVYLQMNSLKPEDTAVYYCAARYDVHYDGMDYWGLGTQVTVSS	low polyreactivity
QVQLVESGGGLVQAGGSLRLSCAASGLTFSYYAMGWYRPAPGKERELVAAITSSGGNTYYADSVKGRFTISRDYAKNTVYLQMNSLKPEDTAGDSCTARRYLRGYGYGYWGQGTQVTVSS	high polyreactivity
QVQLVESGGGLVQAGGSLRLSCAASGLTFSYYAMGWYRQAPGKERELVAAISSSGGSTYYADSVKGRFTISRDYAKNTVYLQMTSLKPEDTAVYYCATAASPVRKRYDYWGQGTQVTVSS	high polyreactivity
QVQLVESGGGLVQAGGSLRLSCAASGLTFSYYAMGWYRQAPGKERELVAAISWSGGITYYADSVKGRFTISRDNAKNTVYLQMNSLKPEDTAVYYCAADGYPTLYDYWGQGTQVTVSS	high polyreactivity
QVQLVESGGGLVQAGGSLRLSCAASGLTFSYYAMGWYRQAPGKERELVAAITRSGTRTYYADSVKGRFTISRDNAKNTVYLQMNSLKPVDTAVYYCARYLRGDFQQGEHWGQGTQVTVSS	high polyreactivity
QVQLVESGGGLVQAGGSLRLSCAASGLTFTFYTMGWYRQAPGKERELVAAISIGGSTYYADSVKGRFTISRDNAKNTVYLQMNSLKQEDTAVYYCAAGYSRYYGHWGYYYWGQGTQVTVSS	high polyreactivity
QVQLVESGGGLVQAGGSLRLSCAASGLTFTSYAMGWYRQAPGKERELVAAIDWSGGRTYYADSVKGRFTISRDNAKNTVYLQMNSLKPEDTAVYYCAAYSRNRALRFNYWGQGTQVTVSS	high polyreactivity
QVQLVESGGGLVQAGGSLRLSCAASGLTFTYYAMGWNRQAPGKQRELVAAISSSGSDTYYADSVKGRFTISRDNAKNTVYLLMNSLKPEDTAVYYCAAVLTALSPDFEYEYWGQGTQVTVSS	low polyreactivity
QVQLVESGGGLVQAGGSLRLSCAASGLTFTYYAMGWYRQAPGKERELVAAITYSGDSKYYADSVKGLFTISRDNAKNTVYLQMNSLKPEDTAVYYCNAEQYLYYILGNYDYWGQGTQVTVSS	low polyreactivity
QVQLVESGGGLVQAGGSLRLSCAASGLTFVDNALGWYRQAPGKERELVAAISYNGGSTYYADSVKGRFTISRDNAKNTVYLQMNSLKPEDTAVYYCAADISVGRYGDMDYWGQGTQVTVSS	low polyreactivity

Sequence	polyreactivity (PSR sort gate)
QVQLVESGGGLVQAGGSLRLSCAASGLTFVDYAMGWYRQAPGKERELVADYYFQRWFYGLRRLCEGALHNFTRQCQEYRNLQMNSLKPEDTAVYYCNTDGPTVAYSEYYYWGQGTQVTVSS	low polyreactivity
QVQLVESGGGLVQAGGSLRLSCAASGLTFVDYTKGWYRQAPGNERELVAAIDWSGGSTYYADSVKGRFTISRDNAKNPVYLQMNSLKPEDTAVYYCNALRRFYSMDDYWGQGTQVTVSS	low polyreactivity
QVQLVESGGGLVQAGGSLRLSCAASGLTFVEYAMGWYRQAPGKEREFVAAIRSRGGSTYYADSVKGRFTISRDNAKNTVYLQMNSLKPEDTAVYYCTADGYFWGQGTQVTVSS	low polyreactivity
QVQLVESGGGLVQAGGSLRLSCAASGLTFVGYAMGWNRQAPGKERELVAAISGVGTTNYGDSVKGRFTISRDNAKNTVYLQMNSLKPEDTAVYYCAKAPYPVPYGLYDYWGQGTQVTVSS	low polyreactivity
QVQLVESGGGLVQAGGSLRLSCAASGLTFVKNAMGWNRQAPGKERELVAAITVSGSRTYYADSVKGRFTISRDNAKNTVYLQMNSLKPEDTGVYYCNAYPYYLVRNMDSWGQGTLVTVSS	high polyreactivity
QVQLVESGGGLVQAGGSLRLSCAASGLTFVKNAMGWYRQAPGKERELVATISSGGSTNYADSVKGRFTISRDNAKNTVYLQMNSLKPEDTAVYYCNKDYTGVLLWIWWDRYDYWGQATQVTVSS	high polyreactivity
QVQLVESGGGLVQAGGSLRLSCAASGLTFVQNAMGWYRQAPGKERELVAAISSRGGSTYYADSVKGRFTISRDNAKNTVYLQMNSLKPEETAVYYCNTRSITKYDYWRRGYGYWGQGTQVTVSS	high polyreactivity
QVQLVESGGGLVQAGGSLRLSCAASGLTFVTNAMGWYRQAPGKERELVAGISWSDGSTYYADSVKGRFTISRDNAKNTVYLQMNSVKPEDSAVYYCNAGVDLHYGYITYGVYGYDYWGQGTQVTVSS	low polyreactivity
QVQLVESGGGLVQAGGSLRLSCAASGLTFVWYAMGWYRQAPGKDRELVAAITLSGGSTYYADSGKGRFTISRDNAKNTVYLQMNSLIPEDTAVYYCAADGTYRPEDYDYWGQGTQVTVSS	low polyreactivity
QVQLVESGGGLVQAGGSLRLSCAASGLTFVYNNMGWYRQAPGKERELVAAINWSGGRTYYADSVKGRFTISRDNAKNTVYLQMNSLKPEDTAVYYCAALYVPNTPTYKYDYWGQGTQVTVSS	low polyreactivity
QVQLVESGGGLVQAGGSLRLSCAASGLTFVYYAMGWYRQAPGKERELLAAISRSGGSTYYADSVKGRFTISRDNAKNTVYLQMNSLKPEDTAVYYCAAEATKWFGVVTMDYWGQGTQVTVSS	high polyreactivity
QVQLVESGGGLVQAGGSLRLSCAASGLTFVYYAMGWYRQAPGKERELVASITRGGSTNYADSVKGRFTISRDNAKNTVYLQMTSLKPEDTAVYYCAAGYGGWAWIHVSYGGDYWGQGTQVSVSS	low polyreactivity
QVQLVESGGGLVQAGGSLRLSCAASGLTFWANTMGWYRQAPGKERELVAAITWSGGSTYYADSVKGRFTISRDNAKNTVNLQMNSLKPEDTAVYYCAADEYFAAGYSYYYWGQGSQVTVSS	low polyreactivity
QVQLVESGGGLVQAGGSLRLSCAASGLTFWDYAMGWYRQAPGKETELVAAISNDDSTYADSVKGRFTISRDNAKNTVYLQMNSLKPEDTAVYYCAAQSYYTWPEMGYWGQGTQVTVSS	low polyreactivity
QVQLVESGGGLVQAGGSLRLSCAASGLTFWKYTMGWYRQAPGKERELVAAISISGTNTYYADSVKGRFTISRDNAKNTVYLQMNSLKPEDTAVYYCAAVRGYPPTNYYYWGQGTQVSVSS	high polyreactivity
QVQLVESGGGLVQAGGSLRLSCAASGLTFWKYTMGWYRQAPGKERELVAAISISGTNTYYADSVKGRFTISRDNAKNTVYLQMNSLKPEDTAVYYCAAVRGYPPTNYYYWGQGTQVTVSS	high polyreactivity
